Test results published in patent EP4663762A2 (HongKong Bioheng Biotech Limited, dated 2025).

T1: Human TIGIT Protein, Fc Tag (ACRO) (human, UniProt Q495A1 22-141)
T1 construct: Bought reagent (ACRO); no catalogue number, no construct limits; also called Human TIGIT Protein, Fc TagTIGIT; not shown: Fc tag
T1 sequence (looked up): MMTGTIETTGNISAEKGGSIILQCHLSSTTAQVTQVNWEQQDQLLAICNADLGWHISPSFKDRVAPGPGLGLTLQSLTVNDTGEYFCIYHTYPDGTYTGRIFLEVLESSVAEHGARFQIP

T2: Human LAG-3 / CD223 Protein, His Tag (ACRO) (human, UniProt P18627 23-450)
T2 construct: Bought reagent (ACRO); no catalogue number, no construct limits; not shown: His tag
T2 sequence (looked up): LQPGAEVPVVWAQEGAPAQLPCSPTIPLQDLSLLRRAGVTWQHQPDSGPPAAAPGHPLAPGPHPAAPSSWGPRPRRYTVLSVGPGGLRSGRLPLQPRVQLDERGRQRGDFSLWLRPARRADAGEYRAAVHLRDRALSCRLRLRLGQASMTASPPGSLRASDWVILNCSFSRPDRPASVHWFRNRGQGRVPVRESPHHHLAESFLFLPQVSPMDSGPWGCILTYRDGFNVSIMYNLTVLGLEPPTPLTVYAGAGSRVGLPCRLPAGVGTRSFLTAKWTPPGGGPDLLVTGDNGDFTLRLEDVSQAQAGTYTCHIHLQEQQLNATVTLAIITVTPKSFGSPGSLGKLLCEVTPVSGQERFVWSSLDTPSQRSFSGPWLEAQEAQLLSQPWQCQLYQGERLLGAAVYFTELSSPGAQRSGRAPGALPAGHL

T3: Human CTLA-4 / CD152 Protein, Fc Tag (ACRO) (human, UniProt P16410 36-161, limits assumed)
T3 construct: Bought reagent (ACRO); no catalogue number, no construct limits; not shown: Fc tag
T3 sequence (looked up): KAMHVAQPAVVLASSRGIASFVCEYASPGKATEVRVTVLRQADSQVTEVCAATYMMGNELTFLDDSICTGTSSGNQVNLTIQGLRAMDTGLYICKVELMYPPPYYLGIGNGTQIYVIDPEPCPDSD

B1: immunosuppressive molecule of plasmid CAR19-ATT (anti-NKG2A scFv, linker, anti-TIGIT scFv, IgG4 hinge, CD28 transmembrane region, CD28 co-stimulatory domain), … (other)
chain: EIVLTQSPATLSLSPGERATMTCSASSSVSSYIYWYQQKPGQAPRLLIYLTSNLASGIPARFSGSGSGTDFTLTISSLEPEDFATYYCQQWSGNPYTFGQGTKVEIKGSTSGSGKPGSGEGSTKGEVQLVESGGGLVKPGGSLRLSCAASGFTFSSYAMSWVRQAPGKGLEWVAEISSGGSYTYYPDSVKGRFTISRDNAKNSLYLQMNSLRAEDTAVYYCTRHGDYPRFFDVWGQGTLVTVSSGGGGSGGGGSGGGGSEVQLQQSGPGLVKPSQTLSLTCAISGDSVSSNSAAWNWIRQSPSRGLEWLGKTYYRFKWYSDYAVSVKGRITINPDTSKNQFSLQLNSVTPEDTAVFYCTRESTTYDLLAGPFDYWGQGTLVTVSSGGGGSGGGGSGGGGSDIVMTQSPDSLAVSLGERATINCKSSQTVLYSSNNKKYLAWYQQKPGQPPNLLIYWASTRESGVPDRFSGSGSGTDFTLTISSLQAEDVAVYYCQQYYSTPFTFGPGTKVEIKRESKYGPPCPPCPFWVLVVVGGVLACYSLLVTVAFIIFWVRSKRSRLLHSDYMNMTPRRPGPTRKHYQPYAPPRDFAAYRS
notes: Membrane-anchored on transduced T cells that also express the anti-CD19 CAR
B2: immunosuppressive molecule of plasmid CAR19-AL3 (anti-NKG2A scFv, linker, anti-LAG3 scFv, IgG4 hinge, CD28 transmembrane region, CD28 co-stimulatory domain), … (other)
chain: EIVLTQSPATLSLSPGERATMTCSASSSVSSYIYWYQQKPGQAPRLLIYLTSNLASGIPARFSGSGSGTDFTLTISSLEPEDFATYYCQQWSGNPYTFGQGTKVEIKGSTSGSGKPGSGEGSTKGEVQLVESGGGLVKPGGSLRLSCAASGFTFSSYAMSWVRQAPGKGLEWVAEISSGGSYTYYPDSVKGRFTISRDNAKNSLYLQMNSLRAEDTAVYYCTRHGDYPRFFDVWGQGTLVTVSSGGGGSGGGGSGGGGSQVQLQQWGAGLLKPSETLSLTCAVYGGSFSDYYWNWIRQPPGKGLEWIGEINHRGSTNSNPSLKSRVTLSLDTSKNQFSLKLRSVTAADTAVYYCAFGYSDYEYNWFDPWGQGTLVTVSSGGGGSGGGGSGGGGSEIVLTQSPATLSLSPGERATLSCRASQSISSYLAWYQQKPGQAPRLLIYDASNRATGIPARFSGSGSGTDFTLTISSLEPEDFAVYYCQQRSNWPLTFGQGTNLEIKRESKYGPPCPPCPFWVLVVVGGVLACYSLLVTVAFIIFWVRSKRSRLLHSDYMNMTPRRPGPTRKHYQPYAPPRDFAAYRS
notes: Membrane-anchored on lentivirally transduced human T cells that also express the anti-CD19 CAR (separated by T2A)
B3: immunosuppressive molecule of plasmid CAR19-C4 (anti-CTLA4 scFv, IgG4 hinge, CD28 transmembrane region, CD28 co-stimulatory domain), on CAR19-C4 T cells (other)
chain: QVQLVESGGGVVQPGRSLRLSCAASGFTFSSYGMHWVRQAPGKGLEWVAVIWYDGSNKYYADSVKGRFTISRDNSKNTLYLQMNSLRAEDTAVFYCARAPNYIGAFDVWGQGTMVTVSSGGGGSGGGGSGGGGSDIQMTQSPSSLSASVGDRVTITCRASQGISSWLAWYQQKPEKAPKSLIYAASSLQSGVPSRFSGSGSGTDFTLTISSLQPEDFATYYCQQYNSYPPTFGQGTKVEIKESKYGPPCPPCPFWVLVVVGGVLACYSLLVTVAFIIFWVRSKRSRLLHSDYMNMTPRRPGPTRKHYQPYAPPRDFAAYRS
notes: as for B1
B4: immunosuppressive molecule of plasmid CAR19-PL3 (anti-PD1 scFv, linker, anti-LAG3 scFv, IgG4 hinge, CD28 transmembrane region, CD28 co-stimulatory domain), on … (other)
chain: QVQLVQSGVEVKKPGASVKVSCKASGYTFTNYYMYWVRQAPGQGLEWMGGINPSNGGTNFNEKFKNRVTLTTDSSTTTAYMELKSLQFDDTAVYYCARRDYRFDMGFDYWGQGTTVTVSSGGGGSGGGGSGGGGSEIVLTQSPATLSLSPGERATLSCRASKGVSTSGYSYLHWYQQKPGQAPRLLIYLASYLESGVPARFSGSGSGTDFTLTISSLEPEDFAVYYCQHSRDLPLTFGGGTKVEIKGGGGSGGGGSGGGGSQVQLQQWGAGLLKPSETLSLTCAVYGGSFSDYYWNWIRQPPGKGLEWIGEINHRGSTNSNPSLKSRVTLSLDTSKNQFSLKLRSVTAADTAVYYCAFGYSDYEYNWFDPWGQGTLVTVSSGGGGSGGGGSGGGGSEIVLTQSPATLSLSPGERATLSCRASQSISSYLAWYQQKPGQAPRLLIYDASNRATGIPARFSGSGSGTDFTLTISSLEPEDFAVYYCQQRSNWPLTFGQGTNLEIKRESKYGPPCPPCPFWVLVVVGGVLACYSLLVTVAFIIFWVRSKRSRLLHSDYMNMTPRRPGPTRKHYQPYAPPRDFAAYRS
notes: as for B1
B5: immunosuppressive molecule of plasmid CAR19-PT3 (anti-PD1 scFv, linker, anti-TIM3 scFv, IgG4 hinge, CD28 transmembrane region, CD28 co-stimulatory domain), on … (other)
chain: QVQLVQSGVEVKKPGASVKVSCKASGYTFTNYYMYWVRQAPGQGLEWMGGINPSNGGTNFNEKFKNRVTLTTDSSTTTAYMELKSLQFDDTAVYYCARRDYRFDMGFDYWGQGTTVTVSSGGGGSGGGGSGGGGSEIVLTQSPATLSLSPGERATLSCRASKGVSTSGYSYLHWYQQKPGQAPRLLIYLASYLESGVPARFSGSGSGTDFTLTISSLEPEDFAVYYCQHSRDLPLTFGGGTKVEIKGGGGSGGGGSGGGGSQVQLVQSGAEVKKPGSSVKVSCKASGYTFTSYNMHWVRQAPGQGLEWMGDIYPGNGDTSYNQKFKGRVTITADKSTSTVYMELSSLRSEDTAVYYCARVGGAFPMDYWGQGTTVTVSSGGGGSGGGGSGGGGSAIQLTQSPSSLSASVGDRVTITCRASESVEYYGTSLMQWYQQKPGKAPKLLIYAASNVESGVPSRFSGSGSGTDFTLTISSLQPEDFATYFCQQSRKDPSTFGGGTKVEIKESKYGPPCPPCPFWVLVVVGGVLACYSLLVTVAFIIFWVRSKRSRLLHSDYMNMTPRRPGPTRKHYQPYAPPRDFAAYRS
notes: as for B1
B6: immunosuppressive molecule of plasmid CAR19-C4L3 (anti-CTLA4 scFv, linker, anti-LAG3 scFv, IgG4 hinge, CD28 transmembrane region, CD28 co-stimulatory domain), … (other)
chain: QVQLVESGGGVVQPGRSLRLSCAASGFTFSSYGMHWVRQAPGKGLEWVAVIWYDGSNKYYADSVKGRFTISRDNSKNTLYLQMNSLRAEDTAVFYCARAPNYIGAFDVWGQGTMVTVSSGGGGSGGGGSGGGGSDIQMTQSPSSLSASVGDRVTITCRASQGISSWLAWYQQKPEKAPKSLIYAASSLQSGVPSRFSGSGSGTDFTLTISSLQPEDFATYYCQQYNSYPPTFGQGTKVEIKGGGGSGGGGSGGGGSQVQLQQWGAGLLKPSETLSLTCAVYGGSFSDYYWNWIRQPPGKGLEWIGEINHRGSTNSNPSLKSRVTLSLDTSKNQFSLKLRSVTAADTAVYYCAFGYSDYEYNWFDPWGQGTLVTVSSGGGGSGGGGSGGGGSEIVLTQSPATLSLSPGERATLSCRASQSISSYLAWYQQKPGQAPRLLIYDASNRATGIPARFSGSGSGTDFTLTISSLEPEDFAVYYCQQRSNWPLTFGQGTNLEIKRESKYGPPCPPCPFWVLVVVGGVLACYSLLVTVAFIIFWVRSKRSRLLHSDYMNMTPRRPGPTRKHYQPYAPPRDFAAYRS
notes: as for B1
B7: immunosuppressive molecule of plasmid CAR19-C4T3 (anti-CTLA4 scFv, linker, anti-TIM3 scFv, IgG4 hinge, CD28 transmembrane region, CD28 co-stimulatory domain), … (other)
chain: QVQLVESGGGVVQPGRSLRLSCAASGFTFSSYGMHWVRQAPGKGLEWVAVIWYDGSNKYYADSVKGRFTISRDNSKNTLYLQMNSLRAEDTAVFYCARAPNYIGAFDVWGQGTMVTVSSGGGGSGGGGSGGGGSDIQMTQSPSSLSASVGDRVTITCRASQGISSWLAWYQQKPEKAPKSLIYAASSLQSGVPSRFSGSGSGTDFTLTISSLQPEDFATYYCQQYNSYPPTFGQGTKVEIKGGGGSGGGGSGGGGSQVQLVQSGAEVKKPGSSVKVSCKASGYTFTSYNMHWVRQAPGQGLEWMGDIYPGNGDTSYNQKFKGRVTITADKSTSTVYMELSSLRSEDTAVYYCARVGGAFPMDYWGQGTTVTVSSGGGGSGGGGSGGGGSAIQLTQSPSSLSASVGDRVTITCRASESVEYYGTSLMQWYQQKPGKAPKLLIYAASNVESGVPSRFSGSGSGTDFTLTISSLQPEDFATYFCQQSRKDPSTFGGGTKVEIKESKYGPPCPPCPFWVLVVVGGVLACYSLLVTVAFIIFWVRSKRSRLLHSDYMNMTPRRPGPTRKHYQPYAPPRDFAAYRS
notes: as for B1
B8: immunosuppressive molecule of plasmid CAR19-PC4 (anti-PD1 scFv, linker, anti-CTLA4 scFv, IgG4 hinge, CD28 transmembrane region, CD28 co-stimulatory domain), on … (other)
chain: QVQLVQSGVEVKKPGASVKVSCKASGYTFTNYYMYWVRQAPGQGLEWMGGINPSNGGTNFNEKFKNRVTLTTDSSTTTAYMELKSLQFDDTAVYYCARRDYRFDMGFDYWGQGTTVTVSSGGGGSGGGGSGGGGSEIVLTQSPATLSLSPGERATLSCRASKGVSTSGYSYLHWYQQKPGQAPRLLIYLASYLESGVPARFSGSGSGTDFTLTISSLEPEDFAVYYCQHSRDLPLTFGGGTKVEIKGGGGSGGGGSGGGGSQVQLVESGGGVVQPGRSLRLSCAASGFTFSSYGMHWVRQAPGKGLEWVAVIWYDGSNKYYADSVKGRFTISRDNSKNTLYLQMNSLRAEDTAVFYCARAPNYIGAFDVWGQGTMVTVSSGGGGSGGGGSGGGGSDIQMTQSPSSLSASVGDRVTITCRASQGISSWLAWYQQKPEKAPKSLIYAASSLQSGVPSRFSGSGSGTDFTLTISSLQPEDFATYYCQQYNSYPPTFGQGTKVEIKESKYGPPCPPCPFWVLVVVGGVLACYSLLVTVAFIIFWVRSKRSRLLHSDYMNMTPRRPGPTRKHYQPYAPPRDFAAYRS
notes: as for B1

Key:
Test in all cases: flow cytometry, soluble tagged antigen staining T cells that carry the construct
[1] = target: T1, Human TIGIT Protein, Fc Tag (ACRO)
[2] = target: T2, Human LAG-3 / CD223 Protein, His Tag …
[3] = target: T3, Human CTLA-4 / CD152 Protein, Fc Tag …
[4] = target: T4, Human PD-1 / PDCD1 Protein, His Tag (ACRO) (human, UniProt Q15116 25-167)
T4 construct: Bought reagent (ACRO); no catalogue number, no construct limits; also called CD279; not shown: His tag
T4 sequence (Q15116 25-167 limits assumed): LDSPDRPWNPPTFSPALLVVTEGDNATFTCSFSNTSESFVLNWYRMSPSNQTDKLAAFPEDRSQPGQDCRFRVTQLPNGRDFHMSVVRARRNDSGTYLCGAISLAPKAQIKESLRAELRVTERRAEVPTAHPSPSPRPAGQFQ

Binder | binding result [2] | binding result [3] | binding result [4] | also measured
B1 | – | – | – | binding result [1]: binds
B2 | binds | – | – | –
B3 | – | binds | – | –
B4 | binds | – | binds | –
B5 | – | – | binds | –
B6 | binds | binds | – | –
B7 | – | binds | – | –
B8 | – | binds | binds | –
